Assay results as given in patent US20180072798A1.

Columns and labels:
[1] = molecular target: DENV-2 (TSV01) wildtype E protein, soluble part, V5 tag, from S2 cells (dengue virus serotype 2 (DENV-2), strain TSV01); test: sandwich ELISA, V5-tagged soluble E captured by anti-V5; the reference itself
[2] = molecular target: DENV-2 (TSV01) wildtype E protein, full length, expressed with prM in HEK293 cells (dengue virus serotype 2 (DENV-2), strain TSV01); test: flow cytometry on transfected HEK293 cells; the reference itself
[3] = molecular target: DENV-4 virus particle, strain 2641Y08, live (dengue virus serotype 4 (DENV-4), strain 2641Y08); test: cell-based or functional assay
[4] = molecular target: DENV-3 virus, strain VN32/96 (dengue virus serotype 3 (DENV-3), strain VN32/96); test: cell-based or functional assay
[5] = molecular target: DENV-1 virus particle, strain 05K2916 (167), live (dengue virus serotype 1 (DENV-1), strain 05K2916); test: cell-based or functional assay
[6] = molecular target: DENV-2 virus particle, strain TSV01, live (dengue virus serotype 2 (DENV-2), strain TSV01); test: cell-based or functional assay
[7] = molecular target: DENV-2 (TSV01) E protein mutant S274A, soluble part, V5 tag, from S2 cells (dengue virus serotype 2 (DENV-2), strain TSV01); test: sandwich ELISA, V5-tagged soluble E captured by anti-V5
[8] = molecular target: DENV-2 (TSV01) E protein mutant T155A, soluble part, V5 tag, from S2 cells (dengue virus serotype 2 (DENV-2), strain TSV01); test: as above
[9] = molecular target: DENV-2 (TSV01) E protein mutant R323A, soluble part, V5 tag, from S2 cells (dengue virus serotype 2 (DENV-2), strain TSV01); test: as above
[10] = molecular target: DENV-2 (TSV01) E protein mutant E49A, soluble part, V5 tag, from S2 cells (dengue virus serotype 2 (DENV-2), strain TSV01); test: as above
[11] = molecular target: DENV-2 (TSV01) E protein mutant N134A, soluble part, V5 tag, from S2 cells (dengue virus serotype 2 (DENV-2), strain TSV01); test: as above
[12] = molecular target: DENV-2 (TSV01) E protein mutant G100A, soluble part, V5 tag, from S2 cells (dengue virus serotype 2 (DENV-2), strain TSV01); test: as above
[13] = molecular target: DENV-2 (TSV01) E protein mutant K64A, soluble part, V5 tag, from S2 cells (dengue virus serotype 2 (DENV-2), strain TSV01); test: as above
[14] = molecular target: DENV-2 (TSV01) E protein mutant Q167A, soluble part, V5 tag, from S2 cells (dengue virus serotype 2 (DENV-2), strain TSV01); test: as above
[15] = molecular target: DENV-2 (TSV01) E protein mutant W101A, soluble part, V5 tag, from S2 cells (dengue virus serotype 2 (DENV-2), strain TSV01); test: as above
[16] = molecular target: DENV-2 (TSV01) E protein mutant Q77A, soluble part, V5 tag, from S2 cells (dengue virus serotype 2 (DENV-2), strain TSV01); test: as above
[17] = molecular target: DENV-2 (TSV01) E protein mutant S169A, soluble part, V5 tag, from S2 cells (dengue virus serotype 2 (DENV-2), strain TSV01); test: as above
[18] = molecular target: DENV-2 (TSV01) E protein mutant F108A, soluble part, V5 tag, from S2 cells (dengue virus serotype 2 (DENV-2), strain TSV01); test: as above
[19] = molecular target: DENV-2 (TSV01) E protein mutant N153A, soluble part, V5 tag, from S2 cells (dengue virus serotype 2 (DENV-2), strain TSV01); test: as above
[20] = molecular target: DENV-2 (TSV01) E protein mutant N203A, soluble part, V5 tag, from S2 cells (dengue virus serotype 2 (DENV-2), strain TSV01); test: as above
[21] = molecular target: DENV-2 (TSV01) E protein mutant K295A, soluble part, V5 tag, from S2 cells (dengue virus serotype 2 (DENV-2), strain TSV01); test: as above
[22] = molecular target: DENV-2 (TSV01) E protein mutant W391A, full length, expressed with prM in HEK293 cells (dengue virus serotype 2 (DENV-2), strain TSV01); test: flow cytometry on transfected HEK293 cells, normalised to 3H5 staining and to wt
[23] = molecular target: DENV-2 (TSV01) E protein mutant F392A, full length, expressed with prM in HEK293 cells (dengue virus serotype 2 (DENV-2), strain TSV01); test: as above
[24] = molecular target: DENV-2 (TSV01) E protein mutant E161A, full length, expressed with prM in HEK293 cells (dengue virus serotype 2 (DENV-2), strain TSV01); test: as above
[25] = molecular target: DENV-2 (TSV01) E protein mutant N153A, full length, expressed with prM in HEK293 cells (dengue virus serotype 2 (DENV-2), strain TSV01); test: as above
[26] = molecular target: DENV-2 (TSV01) E protein mutant S169A, full length, expressed with prM in HEK293 cells (dengue virus serotype 2 (DENV-2), strain TSV01); test: as above
[27] = molecular target: DENV-2 (TSV01) E protein mutant Q200A, full length, expressed with prM in HEK293 cells (dengue virus serotype 2 (DENV-2), strain TSV01); test: as above
[28] = molecular target: DENV-2 (TSV01) E protein mutant E49A, full length, expressed with prM in HEK293 cells (dengue virus serotype 2 (DENV-2), strain TSV01); test: as above
[29] = molecular target: DENV-2 (TSV01) E protein mutant W101A, full length, expressed with prM in HEK293 cells (dengue virus serotype 2 (DENV-2), strain TSV01); test: as above
[30] = molecular target: DENV-2 (TSV01) E protein mutant I162A, full length, expressed with prM in HEK293 cells (dengue virus serotype 2 (DENV-2), strain TSV01); test: as above
[31] = molecular target: DENV-2 (TSV01) E protein mutant K295A, full length, expressed with prM in HEK293 cells (dengue virus serotype 2 (DENV-2), strain TSV01); test: as above
[32] = molecular target: DENV-2 (TSV01) E protein mutant N203A, full length, expressed with prM in HEK293 cells (dengue virus serotype 2 (DENV-2), strain TSV01); test: as above
[33] = molecular target: DENV-2 (TSV01) E protein mutant R323A, full length, expressed with prM in HEK293 cells (dengue virus serotype 2 (DENV-2), strain TSV01); test: as above
[34] = molecular target: DENV-2 (TSV01) E protein mutant K310A, full length, expressed with prM in HEK293 cells (dengue virus serotype 2 (DENV-2), strain TSV01); test: as above
[35] = molecular target: DENV-2 (TSV01) E protein mutant T155A, full length, expressed with prM in HEK293 cells (dengue virus serotype 2 (DENV-2), strain TSV01); test: as above
[36] = molecular target: DENV-2 (TSV01) E protein mutant Q77A, full length, expressed with prM in HEK293 cells (dengue virus serotype 2 (DENV-2), strain TSV01); test: as above
[37] = molecular target: DENV-2 (TSV01) E protein mutant K122A, full length, expressed with prM in HEK293 cells (dengue virus serotype 2 (DENV-2), strain TSV01); test: as above
[38] = molecular target: DENV-2 (TSV01) E protein mutant E202A, full length, expressed with prM in HEK293 cells (dengue virus serotype 2 (DENV-2), strain TSV01); test: as above
[39] = molecular target: DENV-2 (TSV01) E protein mutant N134A, full length, expressed with prM in HEK293 cells (dengue virus serotype 2 (DENV-2), strain TSV01); test: as above

B1: 3C H5L1 antibody (antibody, V domains shown)
VH: EVQLVQSGPDVEKPGASVKVSCKASGYTFTSNYIHWVRQAPGQGLEWMGVINPRGGSTASAQKFQGRITMTRDTSTSTVYMELSSLRSDDTAVYYCARGGRALFYDSYTTPRDGGSWWFDPWGQGSLVTVSS
VL: DIQLTQSPSSLSASVGDRVTFTCQASQDIRKYLNWYQQKPGKAPKLLIYDASNLKTGVPSRFSGSGSGTDFTFTISSLQPEDVATYYCQQFDDLPITFGQGTRLQIK
[1]
  relative binding (normalised to wt E protein) (ratio to wt E protein): 1
[2]
  relative binding (normalised to wt E protein) (ratio to wt E protein): 1
[3]
  EC50, plaque reduction neutralization test (PRNT) on BHK-21 cells: 0.07 µg/mL
[4]
  EC50, plaque reduction neutralization test (PRNT) on BHK-21 cells: 0.5 µg/mL
[5]
  EC50, plaque reduction neutralization test (PRNT) on BHK-21 cells: 0.6 µg/mL
[6]
  EC50, plaque reduction neutralization test (PRNT) on BHK-21 cells: 0.001 µg/mL
[7]
  relative binding (normalised to wt E protein) (ratio to wt E protein): 0.0859
[8]
  relative binding (normalised to wt E protein) (ratio to wt E protein): 0.839
[9]
  relative binding (normalised to wt E protein) (ratio to wt E protein): 0.334
[10]
  relative binding (normalised to wt E protein) (ratio to wt E protein): 0.695
[11]
  relative binding (normalised to wt E protein) (ratio to wt E protein): 0.221
[12]
  relative binding (normalised to wt E protein) (ratio to wt E protein): 0.186
[13]
  relative binding (normalised to wt E protein) (ratio to wt E protein): 0.444
[14]
  relative binding (normalised to wt E protein) (ratio to wt E protein): 0.774
[15]
  relative binding (normalised to wt E protein) (ratio to wt E protein): 0.242
[16]
  relative binding (normalised to wt E protein) (ratio to wt E protein): 0.747
[17]
  relative binding (normalised to wt E protein) (ratio to wt E protein): 0.784
[18]
  relative binding (normalised to wt E protein) (ratio to wt E protein): 0.806
[19]
  relative binding (normalised to wt E protein) (ratio to wt E protein): 0.806
[20]
  relative binding (normalised to wt E protein) (ratio to wt E protein): 0.72
[21]
  relative binding (normalised to wt E protein) (ratio to wt E protein): 0.189
[22]
  relative binding (normalised to wt E protein) (ratio to wt E protein): 0.144
[23]
  relative binding (normalised to wt E protein) (ratio to wt E protein): 0.133
[24]
  relative binding (normalised to wt E protein) (ratio to wt E protein): 1.07
[25]
  relative binding (normalised to wt E protein) (ratio to wt E protein): 0.535
[26]
  relative binding (normalised to wt E protein) (ratio to wt E protein): 0.963
[27]
  relative binding (normalised to wt E protein) (ratio to wt E protein): 0.394
[28]
  relative binding (normalised to wt E protein) (ratio to wt E protein): 0.996
[29]
  relative binding (normalised to wt E protein) (ratio to wt E protein): 0.165
[30]
  relative binding (normalised to wt E protein) (ratio to wt E protein): 0.242
[31]
  relative binding (normalised to wt E protein) (ratio to wt E protein): 1.04
[32]
  relative binding (normalised to wt E protein) (ratio to wt E protein): 0.719
[33]
  relative binding (normalised to wt E protein) (ratio to wt E protein): 0.416
[34]
  relative binding (normalised to wt E protein) (ratio to wt E protein): 0.15
[35]
  relative binding (normalised to wt E protein) (ratio to wt E protein): 0.621
[36]
  relative binding (normalised to wt E protein) (ratio to wt E protein): 0.38
[37]
  relative binding (normalised to wt E protein) (ratio to wt E protein): 0.27
[38]
  relative binding (normalised to wt E protein) (ratio to wt E protein): 2.02
[39]
  relative binding (normalised to wt E protein) (ratio to wt E protein): 1.08
